Laboratory results published in the supplement of paper PMC11246515.
± gives the standard deviation of the averaged measurements.

Test: total protein half-life in vivo (active degradation + dilution); higher = more stable protein
[1] = E. coli NCM3722 delta-clpP delta-lon delta-hslV, growth: N-lim chemostat, doubling time 6 h
[2] = E. coli NCM3722 delta-clpP, growth: N-lim chemostat, doubling time 6 h
[3] = E. coli NCM3722 delta-hslV, growth: N-lim chemostat, doubling time 6 h
[4] = E. coli NCM3722 delta-lon, growth: N-lim chemostat, doubling time 6 h
[5] = E. coli NCM3722 delta-smpB, growth: N-lim chemostat, doubling time 6 h
[6] = wild type E. coli NCM3722, growth: C-lim chemostat, doubling time 3 h
[7] = wild type E. coli NCM3722, growth: C-lim chemostat, doubling time 6 h
[8] = wild type E. coli NCM3722, growth: N-lim chemostat, doubling time 6 h
[9] = wild type E. coli NCM3722, growth: N-lim chemostat, doubling time 12 h
[10] = wild type E. coli NCM3722, growth: P-lim chemostat, doubling time 6 h
[11] = wild type E. coli NCM3722, growth: P-lim chemostat, doubling time 12 h
[12] = wild type E. coli NCM3722, growth: C-lim chemostat, doubling time 12 h

Row | Sequence | total protein half-life in vivo [1] | total protein half-life in vivo [2] | total protein half-life in vivo [3] | total protein half-life in vivo [4] | total protein half-life in vivo [5] | total protein half-life in vivo [6] | total protein half-life in vivo [7] | total protein half-life in vivo [8] | total protein half-life in vivo [9] | total protein half-life in vivo [10] | total protein half-life in vivo [11] | total protein half-life in vivo [12]
1 | MTDLHTDVERYLRYLSVERQLSPITLLNYQRQLEAIINFASENGLQSWQQCDVTMVRNFAVRSRRKGLGAASLALRLSALRSFFDWLVSQNELKANPAKGVSAPKAPRHLPKNIDVDDMNRLLDIDINDPLAVRDRAMLEVMYGAGLRLSELVGLDIKHLDLESGEVWVMGKGSKERRLPIGRNAVAWIEHWLDLRDLFGSEDDALFLSKLGKRISARNVQKRFAEWGIKQGLNNHVHPHKLRHSFATHMLESSGDLRGVQELLGHANLSTTQIYTHLDFQHLASVYDAAHPRAKRGK [P0A8P6] | 4.56 ± 0.07 h | 2.2684 ± 0.0015 h | 1.38 h | 2.36 ± 0.25 h | 1.64 ± 0.28 h | 1.59 ± 0.34 h | 2.67 h | 1.81 h | 2.08 ± 0.12 h | 1.87 ± 0.3 h | 3.1 ± 0.58 h | –
2 | MTDLSHSREKDKINPVVFYTSAGLILLFSLTTILFRDFSALWIGRTLDWVSKTFGWYYLLAATLYIVFVVCIACSRFGSVKLGPEQSKPEFSLLSWAAMLFAAGIGIDLMFFSVAEPVTQYMQPPEGAGQTIEAARQAMVWTLFHYGLTGWSMYALMGMALGYFSYRYNLPLTIRSALYPIFGKRINGPIGHSVDIAAVIGTIFGIATTLGIGVVQLNYGLSVLFDIPDSMAAKAALIALSVIIATISVTSGVDKGIRVLSELNVALALGLILFVLFMGDTSFLLNALVLNVGDYVNRFMGMTLNSFAFDRPVEWMNNWTLFFWAWWVAWSPFVGLFLARISRGRTIRQFVLGTLIIPFTFTLLWLSVFGNSALYEIIHGGAAFAEEAMVHPERGFYSLLAQYPAFTFSASVATITGLLFYVTSADSGALVLGNFTSQLKDINSDAPGWLRVFWSVAIGLLTLGMLMTNGISALQNTTVIMGLPFSFVIFFVMAGLYKSLKVEDYRRESANRDTAPRPLGLQDRLSWKKRLSRLMNYPGTRYTKQMMETVCYPAMEEVAQELRLRGAYVELKSLPPEEGQQLGHLDLLVHMGEEQNFVYQIWPQQYSVPGFTYRARSGKSTYYRLETFLLEGSQGNDLMDYSKEQVITDILDQYERHLNFIHLHREAPGHSVMFPDA [P0ABC9] | 6.17 ± 0.24 h | 7.418 ± 0.034 h | 5.75 ± 1.3 h | > 8 h | 5.11 ± 0.14 h | – | 5.56 h | 6.17 h | 9.97 h | 6.22 ± 1.3 h | 13.1 ± 1.3 h | 11.6 ± 2 h
3 | MTDQAEKKHSAFWGVMVIAGTVIGGGMFALPVDLAGAWFFWGAFILIIAWFSMLHSGLLLLEANLNYPVGSSFNTITKDLIGNTWNIISGITVAFVLYILTYAYISANGAIISETISMNLGYHANPRIVGICTAIFVASVLWLSSLAASRITSLFLGLKIISFVIVFGSFFFQVDYSILRDATSSTAGTSYFPYIFMALPVCLASFGFHGNIPSLIICYGKRKDKLIKSVVFGSLLALVIYLFWLYCTMGNIPRESFKAIISSGGNVDSLVKSFLGTKQHGIIEFCLLVFSNLAVASSFFGVTLGLFDYLADLFKIDNSHGGRFKTVLLTFLPPALLYLIFPNGFIYGIGGAGLCATIWAVIIPAVLAIKARKKFPNQMFTVWGGNLIPAIVILFGITVILCWFGNVFNVLPKFG | – | – | – | – | – | 3.24 ± 0.27 h | 5.07 ± 1.3 h | – | – | – | – | 11 h
4 | MTDSELMQLSEQVGQALKARGATVTTAESCTGGWVAKVITDIAGSSAWFERGFVTYSNEAKAQMIGVREETLAQHGAVSEPVVVEMAIGALKAARADYAVSISGIAGPDGGSEEKPVGTVWFAFATARGEGITRRECFSGDRDAVRRQATAYALQTLWQQFLQNT [P0A6G3] | 6 ± 0.73 h | – | 4.97 ± 0.2 h | 5.11 ± 0.27 h | 4.06 ± 0.093 h | – | 5.59 ± 0.56 h | 4.67 ± 0.057 h | 7.78 ± 0.54 h | 5.897 ± 0.055 h | 11.7 ± 0.88 h | 11 ± 1.9 h
5 | MTEFTTLLQQGNAWFFIPSAILLGALHGLEPGHSKTMMAAFIIAIKGTIKQAVMLGLAATISHTAVVWLIAFGGMVISKRFTAQSAEPWLQLISAVIIISTAFWMFWRTWRGERNWLENMHGHDYEHHHHDHEHHHDHGHHHHHEHGEYQDAHARAHANDIKRRFDGREVTNWQILLFGLTGGLIPCPAAITVLLICIQLKALTLGATLVVSFSIGLALTLVTVGVGAAISVQQVAKRWSGFNTLAKRAPYFSSLLIGLVGVYMGVHGFMGIMR | – | – | 4.77 h | 4.13 h | 5.43 ± 0.75 h | > 4 h | 5.864 ± 0.02 h | – | – | 5.97 h | 11.6 h | 10.8 h
6 | MTEIQRLLTETIESLNTREKRDNKPRFSISFIRKHPGLFIGMYVAFFATLAVMLQSETLSGSVWLLVVLFILLNGFFFFDVYPRYRYEDIDVLDFRVCYNGEWYNTRFVPAALVEAILNSPRVADVHKEQLQKMIVRKGELSFYDIFTLARAESTS [P0AAS0] | – | – | – | – | – | 0.508 ± 0.022 h | 0.836 h | 2.01 h | – | 0.489 h | 0.554 h | –
